Here are results for two substances from article PMC4150794.

Data set [1] deals with RBPMS2-Nter (Homo sapiens). Nature of the data set: EMSA. To be noted: theoretical Kd, cooperative fit; 100 nM RNA; second complex at 5 uM; EMSA: 20 mM Tris pH 7.4, 100 mM KCl, 1 mM EDTA, 10 ug/ml BSA, 1 mM DTT, 1 U/ul RNaseOUT, 2% glycerol, 20 C 30 min, 10% gel in 1X TBE at 4 C; anisotropy: 20 mM …. A general note: A gel shift assay detects complexes by their altered migration in electrophoresis.

A further data set relates to Q6ZRY4. The data set is described as follows: SEC-MALS; Superdex 75 10/300, 20 mM Tris-HCl pH 8, 300 mM NaCl; loaded at 2 mg/ml (RBPMS2-Nter) or 4 mg/ml (RBPMS2-Nter-L49E); monomer to dimer.

As a reminder, the Kd is the constant that tells how readily two partners part at equilibrium. High values mean weaker binding, low ones tighter binding. In the case of 161-nt NOGGIN RNA, the Kd in data set [1] was found to be 2250 nM.

“RBPMS2-Nter-L49E (human RBPMS2 residues 27-117 with L49E)”: in the data set on Q6ZRY4, the “percent of the protein in the monomer peak” value is reported as “The majority species (92.4%) has a Mw of 10.6 kDa, as would be expected for the monomer”.
